{"source": "paper PMC8998617", "about": "(2022)", "biological_target": "recombinant human full-length Tau (2N4R, 441 aa), non-phosphorylated (human, UniProt P10636-8 1-441)", "assay": "SPR"}
{"binder": "Nup98-FG/FS (full F/S mutant of Nup98-FG) (domain or fragment) not shown", "values": [{"measurement": "Kd", "value": 360, "unit": "nM"}]}
